Residue numbers refer to the chain shown, from its start.
Key:
[1] = test system: T1, CRISPR nuclease variant L580G,L385G L580G,L385G (synthetic construct); test: cell_activity; conditions: PAM 5'-GCTG-3'; HEK293T; averaged over AAVS1, VEGFA, EMX1 targets
T1 sequence: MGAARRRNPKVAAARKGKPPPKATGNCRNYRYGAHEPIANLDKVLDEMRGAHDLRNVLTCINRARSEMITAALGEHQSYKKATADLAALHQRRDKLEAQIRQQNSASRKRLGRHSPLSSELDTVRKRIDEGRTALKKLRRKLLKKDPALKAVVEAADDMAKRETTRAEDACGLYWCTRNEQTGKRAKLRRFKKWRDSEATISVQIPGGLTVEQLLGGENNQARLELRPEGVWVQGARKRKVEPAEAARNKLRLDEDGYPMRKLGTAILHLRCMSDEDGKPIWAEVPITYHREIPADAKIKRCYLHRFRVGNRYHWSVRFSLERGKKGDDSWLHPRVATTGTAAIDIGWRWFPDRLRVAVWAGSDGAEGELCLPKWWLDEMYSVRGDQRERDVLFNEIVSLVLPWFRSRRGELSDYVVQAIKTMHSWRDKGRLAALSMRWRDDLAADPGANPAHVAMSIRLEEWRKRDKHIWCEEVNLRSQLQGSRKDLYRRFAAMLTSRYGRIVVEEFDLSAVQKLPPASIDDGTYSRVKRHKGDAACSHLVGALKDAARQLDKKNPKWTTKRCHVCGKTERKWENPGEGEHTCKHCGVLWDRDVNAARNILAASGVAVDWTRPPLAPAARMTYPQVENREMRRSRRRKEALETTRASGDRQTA

[2] = test system: T2, CRISPR nuclease variant Q514G Q514G (synthetic construct); test: cell_activity; conditions: PAM 5'-GCTG-3'; HEK293T; averaged over AAVS1, VEGFA, EMX1 targets
T2 sequence: T1 sequence with G385L, Q514G, G580L

“GGUCCCAUCGGAACGGGUUGUGGUUCCGACGGAGGGAUACAUUGGUGGGG / GGAGGGATACATTGGTGGGG / CCCCACCAATGTATCCCTCC [AAVS1 crRNA (Table 5) ; AAVS1 target (Table 5)]” showed a binding signal (fold indels vs WT) [1] of 3.9 and a binding signal (fold indels vs WT) [2] of 3.53.

— patent US20230235304
